Test results reported in patent US20230272055A1, “ANTI-MUTANT CALRETICULIN (CALR) ANTIBODIES AND USES THEREOF” (Incyte Corporation, priority 2021, published 2023).
Where two headings read alike, the source gives them in different places. One block for each binder: values may come before it.

What was measured:
[1] = target: Human Type 1 mutCALR (human); experiment: cell-based or functional assay
[2] = target: human Type 1 mutCALR (52 bp deletion) (human)
[3] = target: human Type 1 mutCALR (52 bp deletion) (human); remark: listed apart in the source
[4] = target: human Type 1 mutCALR (52 bp deletion) (human); remark: listed apart in the source
[5] = target: human Type 1 mutCALR (52 bp deletion) (human); remark: listed apart in the source
[6] = target: human Type 1 mutCALR (52 bp deletion) (human); remark: listed apart in the source
[7] = target: human Type 1 mutCALR on Ba/F3 cells expressing MPL and Type 1 mutCALR (human); experiment: cell-based or functional assay
Chain of human Type 1 mutCALR on Ba/F3 cells expressing MPL and Type 1 mutCALR (human) (chain, as listed by the source limits assumed): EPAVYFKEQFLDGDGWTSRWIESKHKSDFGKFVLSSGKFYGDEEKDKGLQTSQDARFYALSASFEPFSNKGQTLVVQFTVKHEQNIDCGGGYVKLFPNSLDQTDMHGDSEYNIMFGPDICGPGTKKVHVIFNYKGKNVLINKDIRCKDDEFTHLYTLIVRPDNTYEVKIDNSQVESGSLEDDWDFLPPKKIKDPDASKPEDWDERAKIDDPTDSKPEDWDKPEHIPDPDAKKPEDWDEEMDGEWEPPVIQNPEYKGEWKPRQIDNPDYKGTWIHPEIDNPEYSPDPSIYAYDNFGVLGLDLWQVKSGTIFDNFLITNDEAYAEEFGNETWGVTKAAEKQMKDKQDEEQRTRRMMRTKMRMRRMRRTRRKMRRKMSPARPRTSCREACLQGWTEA

Chain of Human Type 1 mutCALR (human) (chain, as listed by the source limits assumed): as above
Chain of human Type 1 mutCALR (52 bp deletion) (human) (chain, as listed by the source limits assumed, stated change not applied): as the sequence (chain, as listed by the source limits assumed) above

IC50 of inhibition of cell proliferation (BaF3 cells expressing MPL/mutCALR Type 1) [1]: > 60 µg/mL
B1: AB2: anti-mutCALR antibody including VH and VL regions of antibody B3 from WO2020175689 fused to human constant regions (antibody, human IgG1, kappa, V domains shown)
VH: QVQLQQSGAELVKPGSSVKISCKASGYTFTRNFIHWIKQQPGNGLEWIGWIFPGDGDTEYNQKFNGKATLTADKSSSTAYMQLSSLTSEDSAVYFCARGNYNYEYFDYWGQGVMVTVSS
VL: DIQMTQSPASLSASLGETVSIECLASEDIYSYLAWYQQKPGKSPQLLIFAANRLQDGVPSRFSGSGSGTQFSLKISGMQPEDEGDYFCLQGSKFPYTFGPGTKLELNR

IC50 of inhibition of MPL-LgBiT/MPL-smBiT dimerization (NanoBiT luminescence, percent of isotype) in transfected HAP1 JAK2-knockout cells [2]: 3.27 ng/mL
IC50 of inhibition of cell proliferation (Ba/F3 cells with MPL and mutCALR Type 1) [1]: 0.9 ng/mL
B2: anti-mutCALR antibody clone 68 (antibody, human IgG1, lambda, N297A, V domains shown)
VH: EVQLVQSGAEVKKPGASVKVSCKVSGYTLTELSMQWVRQAPGKGLEWMGGFDPDEGETMYAEKFQGRLTVTEDTSTDTVYMELRSLTSEDTALYFCATSPGYDFFDYWGQGTLVTVSS
VL: SYVLTQPPSVSVAPGKTARITCTGTSSDVGGYNYVSWYQQKPGQAPVLVVYEVSNRPSGIPERFSGSNSGNTATLTISRVEAGDEADYYCQVWDSSNDLLIFGGGTKLTVLG

IC50 of inhibition of MPL-LgBiT/MPL-smBiT dimerization (NanoBiT luminescence, percent of isotype) in transfected HAP1 JAK2-knockout cells [3]: 3.27 ng/mL
IC50 of inhibition of cell proliferation (Ba/F3 cells with MPL and mutCALR Type 1) [1]: 0.3 ng/mL
B3: anti-mutCALR antibody clone 65 (antibody, human IgG1, lambda, N297A, V domains shown)
VH: EVQLVQSGAEVKKPGASVKVSCKVSGYTLTELSMQWVRQAPGKGLEWMGGFDPDDGETMYAEKFQGRLTVTEDTSTDTVYMELRSLTSEDTALYFCATSPGYDFFDYWGQGTLVTVSS
VL: SYVLTQPPSVSVAPGKTARITCTGTSSDVGGYNYVSWYQQKPGQAPVLVVYEVSNRPSGIPERFSGSNSGNTATLTISRVEAGDEADYYCQVWDSSNDLLIFGGGTKLTVLG

IC50 of inhibition of MPL-LgBiT/MPL-smBiT dimerization (NanoBiT luminescence, percent of isotype) in transfected HAP1 JAK2-knockout cells [4]: 3.77 ng/mL
IC50 of inhibition of cell proliferation (Ba/F3 cells with MPL and mutCALR Type 1) [1]: 1.9 ng/mL
B4: anti-mutCALR antibody clone 184 (antibody, human IgG1, lambda, N297A, V domains shown)
VH: EVQLVQSGAEVKKPGASVKVSCKVSGYTLTELSMQWVRQAPGKGLEWMGGFDPDDAETMYAEKFQGRLTVTEDTSTDTVYMELRSLTSEDTALYFCATSPGYDFFDYWGQGTLVTVSS
VL: SYVLTQPPSVSVAPGQTARITCGGSDIGDEIVHWYQQKPGQAPVLVVYDDSDRPSGIPERFSGSNSGNTATLTISRVEAGDEADYYCQVWDSSSDHLIFGGGTKLTVLG

IC50 of inhibition of MPL-LgBiT/MPL-smBiT dimerization (NanoBiT luminescence, percent of isotype) in transfected HAP1 JAK2-knockout cells [5]: 8.89 ng/mL
IC50 of inhibition of cell proliferation (Ba/F3 cells with MPL and mutCALR Type 1) [1]: 1 ng/mL
Log IC50 of inhibition of cell proliferation, antibody + ruxolitinib (Ba/F3-TPOR/mutCALR type 1 cells) (Log IC50 (µg/mL)) [1]: -1.46
Log IC50 of inhibition of cell proliferation, antibody alone (Ba/F3-TPOR/mutCALR type 1 cells) (Log IC50 (µg/mL)) [1]: -0.438
B5: anti-mutCALR antibody clone 74 (antibody, human IgG1, lambda, N297A, V domains shown)
VH: EVQLVQSGAEVKKPGASVKVSCKVSGYTLTELSMQWVRQAPGKGLEWMGGFDPDDAETMYAEKFQGRLTVTEDTSTDTVYMELSSLRSEDTAVYFCATSPGYDFFDYWGQGTLVTVSS
VL: SYVLTQPPSVSVAPGKTARITCTGTSSDVGGYNYVSWYQQKPGQAPVLVVYEVSNRPSGIPERFSGSNSGNTATLTISRVEAGDEADYYCQVWDSSNDLLIFGGGTKLTVLG

IC50 of inhibition of MPL-LgBiT/MPL-smBiT dimerization (NanoBiT luminescence, percent of isotype) in transfected HAP1 JAK2-knockout cells [6]: 2.48 ng/mL
IC50 of inhibition of cell proliferation (Ba/F3 cells with MPL and mutCALR Type 1) [1]: 4.6 ng/mL
B6: anti-mutCALR antibody clone 188 (antibody, human IgG1, lambda, N297A, V domains shown)
VH: EVQLVQSGAEVKKPGASVKVSCKVSGYTLTELSMQWVRQAPGKGLEWMGGFDPDEGETMYAEKFQGRLTVTEDTSTDTVYMELSSLRSEDTAVYFCATSPGYDFFDYWGQGTLVTVSS
VL: SYVLTQPPSVSVAPGQTARITCGGSDIGDEIVHWYQQKPGQAPVLVVYDDSDRPSGIPERFSGSNSGNTATLTISRVEAGDEADYYCQVWDSSSDHLIFGGGTKLTVLG

IC50, inhibition of pSTAT5 [7]: 0.06 µg/mL
B7: anti-mutCALR antibody clone 14 (antibody, human IgG1, lambda, V domains shown)
VH: EVQLVQSGAEVKKPGASVKVSCKVSGYTLTELSMQWVRQAPGKGLEWMGGFDPDDGETMYAEKFQGRLAVTEDTSTDTVYMELRSLTSEDTALYFCATSPGYDFFDYWGQGTLVTVSS
VL: SYVLTQPPSVSVAPGKTARITCGGYNIGSKFVHWYRQRPGQAPVLVVYDDRDRPSGIPERFSGSNSGNTATLTISRVEAGDEADYYCQVWDSSNDLLIFGGGTKLTVLG

IC50 of inhibition of cell proliferation (Ba/F3 cells with MPL and mutCALR Type 1) [1]: 9.8 ng/mL
B8: anti-mutCALR antibody clone 128 (antibody, human IgG1, lambda, N297A, V domains shown)
VH: EVQLVQSGAEVKKPGASVKVSCKVSGYTLTELSMQWVRQAPGKGLEWMGGFDPDDAETMYAEKFQGRLTVTEDTSTDTVYMELRSLTSEDTALYFCATSPGYDFFDYWGQGTLVTVSS
VL: SYELTQPPSVSVAPGKTARITCGGDNIGSKSVHWYQQKPGQAPVLVVYDDSDRPSGIPERFSGSNSGNTATLTINRVEAGDEADYYCQVWDSSNDLLIFGGGTKLTVLG

IC50 of inhibition of cell proliferation (BaF3 cells expressing MPL/mutCALR Type 1) [1]: > 60 µg/mL
B9: AB3: anti-mutCALR antibody including the BJ095 VH region and the BJ097 VL region from WO2019178362 fused to human constant regions (antibody, human IgG1, kappa, V domains shown)
VH: QVQLVQSGAEVKKPGASVKVSCKASGYSFTGYYIHWVRQAPGQGLEWIGYISAYNGASSYNQKFKGRATFTVDTSISTAYMELSRLRSDDTAVYYCASSMDYWGQGTLVTVSS
VL: DVVMTQSPLSLPVTLGQPASISCKSSQSLLDSDGKTYLNWLQQRPGQSPKRLIYLVSKLDSGVPDRFSGSGSGTDFTLKISRVEAEDVGVYHCWQGTHFPYTFGQGTKLIEKR

IC50, inhibition of pSTAT5 [7]: 12.7 µg/mL
B10: anti-mutCALR antibody clone 54 (antibody, human IgG1, kappa, V domains shown)
VH: QVTLKESGPGILKPSQTLSLTCSFSGFSLSTSGMGVGWIRQPSGKGLEWLAHIWWDDDKYYNPYLKNQVTISKDTSRNQVFLKITSVDTADTATYYCARSAYGSTYGYWGQGTTLTVSS
VL: DIVLTQSPASLAVSLGQRATISCKASQSVDYDGDSFMNWYQQKPGQPPKLLIYTASILESGIPARFSGSGSGTDFTLNIHPVEEEDAATYYCQQSNEDPWTFGGGTKLEIKR
